Data set [1] in a line: In-gel imaging of tBroccoli and tdBroccoli (DFHBI-1T / SYBR Gold staining). The data set is classed as biochemical. As to conditions: gel band intensity, normalized to molecular weight. The protocol: In-Gel Imaging of Spinach-Containing RNAs: Total bacterial RNA was purified using Trizol LS reagent (Life Technologies) following the manufacturer's protocol. Typically, 200-500 ng of total RNA or 50-100 ng of in vitro transcribed RNA was loaded into a well of precast 6% TBE-Urea Gel (Life Technologies) and ran at 270-300 V in 1×TBE buffer. RiboRuler Low Range RNA Ladder (Thermo Scientific) was used as band size standard.
After the gel was run to completion, the gel was washed 3×5 min with water and then stained for 30 min in 10 μM DFHBI or DFHBI-1T in buffer containing 40 mM HEPES pH 7.4, 100 mM KCl, 1 mM MgCl2. Then gel was imaged using a ChemiDoc MP with 470/30 nm excitation and 532/28 nm emission. Next, to see all the RNA in the sample, the gel was again washed 3×5 min with water followed by staining for 30 min with SYBR Gold (or Green) dye (Life Technologies) diluted 1/10000 in TBE buffer. Then gel was imaged under the same instrument using preset SYBR Gold (or Green) channel (302 nm excitation and 590/110 nm emission). Gel bands intensities were quantified in Image Lab 5.0 software (Bio-Rad). The bacterial 5S rRNA band was used for loading normalization.

Another data set concerns HEK293T cells. The data set can be described thus: Flow cytometry of HEK293T cells expressing 5S rRNA-aptamer fusions with DFHBI-1T. It counts as cell-based. As to conditions: 5S fusions, HEK293T, 40 μM DFHBI-1T. On the procedure: FIG. 24 illustrates the quantification of the flow cytometry analysis of aptamers expression in mammalian cells. To compare specific aptamers' brightness in mammalian cells, HEK293T cells were transfected with two plasmids: one expressing aptamer (with or without tRNA) fused to 5S rRNA and another expressing mCherry fluorescent protein. Cells were then treated with 40 μM DFHBI-1T and analyzed on FACSAria III instrument in two channels: green (ex=488 nm; em=525±50 nm) and red (ex=561 nm and em=610±20). For quantification, mean fluorescent signal of the non-negative population was calculated and then mean fluorescent signal of the negative population was subtracted from it to assess specific, not background fluorescent signal. Finally, this number was multiplied by the percentage of the non-negative population to provide the total fluorescent signal of the non-negative population. These numbers are plotted on the bar graph above. Where indicated, cells were also pre-treated with 5 mM MgSO4. Error bar indicates robust SD calculated by FlowJo program, used for data analysis.
Imaging 5S-tBroccoli and 5S-t-tdBroccoli: Plasmids were transfected into HEK293T cell using FuGENE HD reagent (Promega) following manufacture's protocol. Cell imaging was carried out as previously described for 5S-Spinach (Paige et al., “RNA Mimics of Green Fluorescent Protein,” Science 333(6042): 642-6 (2011), which is hereby incorporated by reference in its entirety) with DFHBI-1T instead of DFHBI. […]
Flow cytometry was used to quantify average brightness of tRNA. Transfected cells were analyzed in two channels: green (ex=488 nm; em=525±50 nm) and red (ex=561 nm; em=610±20). […] As evidenced from FIG. 14A, 5S-tBroccoli and 5S-tdBroccoli are clearly detectable in the green fluorescence channel and this specific signal appears only upon cells treatment with DFHBI-1T (FIG. 23).

Data set [2] is described as follows: Magnesium dependence of aptamer fluorescence. It counts as physicochemical. On the procedure:
To measure magnesium dependence 1 μM RNA was incubated with 10 μM 1T in 40 mM HEPES pH 7.4, 100 mM KCl buffer with different concentrations of MgCl2 and then fluorescence emission was measured on a plate reader.

The next data set concerns E. coli. Put plainly: Whole-cell fluorescence measurements of E. coli expressing Spinach or Spinach2. It counts as cell-based, Escherichia coli. The protocol: Cloning Spinach2 for Expression in E. coli: Spinach and Spinach2 were PCR-amplified with primers containing the EagI restriction sites on both the 5′ and 3′ ends of the Spinach sequence.
Whole-Cell Fluorescence Measurements of E. coli: BL21 cells were transformed to harbor either pET28c-tRNA-Spinach or pET28c-tRNA-Spinach2, and grown in Luria broth with 100 μg/ml kanamycin to OD600 0.4 at room temperature. The cells were then induced with addition of 1 mM IPTG for 2 h at room temperature. After induction, cells were normalized for cell density and split into two aliquots. One aliquot per sample was incubated at room temperature, and the other was incubated for 20 min at 37° C. Cells were then measured for total fluorescence using a Tecan Safirell plate reader with 460±10 nm excitation and emission was recorded at 510±10 nm. Data shown represent mean and s.e.m. values for three independent experiments.

Data set [3] is described as follows: Folding assay (fraction of RNA folded, DFHBI). The data set is classed as physicochemical. On the procedure:
Folding Assay: The folding assay involves measurement of fluorescence under two conditions, one in which RNA is in excess relative to DFHBI, and one in which the DFHBI is in excess relative to RNA. As Spinach and DFHBI form a 1:1 stoichiometric complex, the maximum amount of complex that can be formed is determined by the limiting component. In the first condition, the fluorescence was determined by incubation of 0.1 μM DFHBI and 100-fold excess (10 μM) Spinach. This value was used to define the fluorescence of 0.1 μM Spinach-DFHBI complex. It was assumed that even if nearly all Spinach is misfolded or unfolded, there will be enough properly folded Spinach to stoichiometrically bind 0.1 μM DFHBI. This was confirmed by measuring fluorescence after doubling the RNA to 20 μM, which caused no increase in fluorescence. In the second condition, the fluorescence obtained using 10 μM DFHBI and 0.1 μM Spinach was measured. In theory, up to 0.1 μM Spinach-DFHBI can form if all the Spinach is folded. However, if a portion of Spinach is unfolded, the fluorescence will be proportionately less than the fluorescence of 0.1 μM Spinach-DFHBI. Thus, this approach can reveal the fraction of Spinach that is folded under diverse conditions.
Fluorescence was measured for each RNA under the following conditions: (i) 0.1 μM RNA and 10 μM DFHBI, and (ii) 0.1 μM DFHBI and 10 μM RNA. For each condition, the signal from DFHBI without RNA was subtracted from each signal. Fluorescence was measured in 20 mM HEPES pH 7.4, 100 mM KCl and 1 mM MgCl2 at the designated temperature. Fluorescence measurements were performed using a PerkinElmer LS-55 fluorescence spectrometer using the following instrument parameters: excitation wavelength, 460 nm; emission wavelength, 501 nm; slit widths, 10 nm. Signal from the first condition (limiting RNA) was divided by the signal from the second condition (limiting dye) to determine the fraction folded.

Data set [4] can be described thus: In vitro fluorescence (brightness) of Spinach RNAs, mutants and flanked/fused constructs with DFHBI. It counts as biochemical. The conditions noted are these: for fold brighter than the same construct fused to Spinach: in vitro. An excerpt: Preparation and Analysis of Spinach and Spinach Mutants: RNAs were created by using the appropriate single-stranded DNA templates (Integrated DNA Technologies) and PCR amplification using primers that included a 5′ T7 promoter sequence to generate double-stranded DNA templates. PCR products were then purified with PCR purification columns (Qiagen) and used as templates for in vitro T7 transcription reactions (Epicentre) as described previously (Paige et al., “RNA mimics of green fluorescent protein,” Science 333: 642-646 (2011), which is hereby incorporated by reference in its entirety). RNA was purified using ammonium acetate precipitation, and quantified using both absorbance values and the Riboquant Assay kit (BD Biosciences). Photophysical characterization of Spinach2 was carried out as previously described (Paige et al., “RNA mimics of green fluorescent protein,” Science 333: 642-646 (2011), which is hereby incorporated by reference in its entirety).
Preparation and In Vitro Analysis of Flanked Spinach and Spinach2 Constructs: Spinach and Spinach2 constructs flanked on either side by 50 base pairs were generated by PCR. For Spinach, the following primers were used:
The 50-base-pair sequences were taken from the human β-actin 3′ untranslated region. Both forward primers encode the T7 RNA polymerase promoter for in vitro transcription. 5S-Spinach and 5S-Spinach2 were amplified by PCR from pAV-5S-Spinach and pAV-5S-Spinach2, respectively, using the following primers: […]
PCR products were used as templates for in vitro transcription by Ampliscribe T7 RNA polymerase as previously described (Paige et al., “RNA mimics of green fluorescent protein,” Science 333: 642-646 (2011), which is hereby incorporated by reference in its entirety). Fluorescence measurements were recorded for 0.1 μM RNA in the presence of 10 μM DFHBI in buffer composed of 20 mM HEPES pH 7.4, 100 mM KCl and […] as described above.
Next, systematic mutagenesis was carried out to identify thermostable Spinach mutants with improved folding. Because elevated G+C content can lead to stable misfolded structures (Kiliszek et al., “Crystal Structures of CGG RNA Repeats with Implications for Fragile X-Associated Tremor Attaxia Syndrome,” Nuc. Acids Res. 39:7308-7315 (2011); Sobczak et al., “RNA Structure of Trinucleotide Repeats Associated with Human Neurological Diseases,” Nuc. Acids Res. 31:5469-5482 (2003), each of which is hereby incorporated by reference in its entirety), it was reasoned that decreasing the overall G+C content could promote proper folding. Scanning mutagenesis was carried out, mutating every […] and cytosine to adenosine or uracil, respectively. In regions where G and C residues were predicted to form a base pair, both residues were mutated to A and U, to maintain the complementarity. Each of these 35 mutants was synthesized in vitro, and the fraction folded was measured at 25° C. and 42° C. Fluorescence signals that were equal to or greater than Spinach at 25° C. indicated equal or greater percent folded. A higher percentage signal at 42° C. indicated improved thermostability relative to Spinach.

Data set [5] in a line: Thermostability measurements of Spinach RNAs with DFHBI. The data set is classed as physicochemical. As to conditions: fluorescence of RNA-DFHBI complex in vitro, 20-60 °C; ±s.e.m. On the procedure: Thermostability Measurements: Spinach or Spinach2 (1 μM) was incubated in 20 mM HEPES pH 7.4, 100 mM KCl, 1 mM MgCl2 and 10 μM DFHBI. Fluorescence values were recorded in 1° C. increments from 20° C. to 60° C., with a 5-min incubation at each temperature to allow for equilibration. Fluorescence measurements were performed using a PerkinElmer LS-55 fluorescence spectrometer using the following instrument parameters: excitation wavelength, 460 nm; emission wavelength, 501 nm; slit widths, 10 nm. Curves were fitted using the Boltzmann sigmoidal equation in GraphPad Prism 5 software. Values presented are mean and s.e.m. from three independent measurements.

Here are results for two molecules from patent US9664676B2, “RNA sequences that induce fluorescence of small molecule fluorophores” (Cornell University, priority 2013, dated 2017).

B1: tdBroccoli: dBroccoli in tRNA scaffold, SEQ ID NO: 40 (nucleic acid)
chain: GCCCGGATAGCTCAGTCGGTAGAGCAGCGGAGACGGTCGGGTCCATCTGAGACGGTCGGGTCCAGATATTCGTATCTGTCGAGTAGAGTGTGGGCTCAGATGTCGAGTAGAGTGTGGGCTCCGCGGGTCCAGGGTTCAAGTCCCTGTTCGGGCGCCA
modifications: tdBroccoli
Regarding B1, the “fold more fluorescent than tBroccoli” value in data set [1] is on record as roughly 1.8 fold. Besides, in the data set on HEK293T cells, the “brighter than tBroccoli (mean fluorescence intensity of the green population)” value is recorded as 70%.

B2: Spinach2: RNA aptamer SEQ ID NO: 2; Spinach1.2 variant containing all six mutations (nucleic acid)
chain: GAUGUAACUGAAUGAAAUGGUGAAGGACGGGUCCAGUAGGCUGCUUCGGCAGCCUACUUGUUGAGUAGAGUGUGAGCUCCGUAACUAGUUACAUC
modifications: listed as RNA, chemistry not given here
notes: Spinach1.2 variant containing all six mutations
Regarding B2, the “percent of maximal fluorescence in magnesium-free buffer” value in data set [2] (1 μM RNA, 10 μM DFHBI-1T) was 11%. The “magnesium concentration giving maximal fluorescence” value in data set [2] (MgCl2 titration) is listed as roughly 1 mM. Further, in data set [2] (MgCl2 titration), the “percent of maximal fluorescence at ~300 μM magnesium” value was determined as 50%. Also, the “fold brighter than Spinach in Escherichia coli” value with E. coli (25 °C) came to 1.4 fold; with E. coli (37 °C), 2.1 fold. Moreover, the percentage folded is recorded as 80±6.1% in data set [3] (25 °C, in the presence of the tRNA (tRNA^Lys3 scaffold)); 58±4.8% in data set [3] (25 °C, no tRNA scaffold); 60±5.4% in data set [3] (37 °C, in the presence of the tRNA (tRNA^Lys3 scaffold)); 37±3.3% in data set [3] (37 °C, no tRNA scaffold). Further, in data set [4], the “fluorescence retained when fused to the CGG repeat-containing RNA” value was 80%. Moreover, the “fold brighter than Spinach in vitro” value came to 1.8 fold in data set [4] (25 °C) and 2.8 fold in data set [4] (37 °C). In addition, in data set [4] (flanked by 50 nt of RNA on both 5′ and 3′ ends, 0.1 μM RNA), the “brightness of flanked RNA relative to the same aptamer alone” value came out at 90%. Besides, in data set [4] (flanked by 50 nt of RNA on both ends), the “brightness of flanked Spinach2 versus flanked Spinach” value is “tenfold brighter than flanked Spinach”. The figures for the “fold brighter than the same construct fused to Spinach” value in data set [4] (fusion with 5S RNA), in data set [4] (fusion with 7SK RNA) and in data set [4] (fusion with (CGG)60 RNA) were 3 fold, 6 fold and 20 fold, respectively. The “fluorescence retained by tagged Spinach2 relative to Spinach2 alone” value in data set [4] (fusions with 5S, 7SK and (CGG)60 RNA, all cases) was “more than 70%”. Besides, in data set [4] (percent of signal remaining at 42 °C for a given mutant), the “Percent Brightness (at 42° C.)” value was 41%. In data set [4] (relative to Spinach, 25 °C), the “Relative Brightness (at 25° C.)” value was found to be 1.8. Besides, the “melting temperature (Tm)” value in data set [5] is 38±0.4 °C.
